# Laboratory results published in IntAct's records for PubMed 29340707.
# B1: Serine/threonine-protein kinase VRK1 (Homo sapiens), Q99986 (parent)
# chain: MPRVKAAQAGRQSSAKRHLAEQFAVGEIITDMAKKEWKVGLPIGQGGFGCIYLADMNSSESVGSDAPCVVKVEPSDNGPLFTELKFYQRAAKPEQIQKWIRTRKLKYLGVPKYWGSGLHDKNGKSYRFMIMDRFGSDLQKIYEANAKRFSRKTVLQLSLRILDILEYIHEHEYVHGDIKASNLLLNYKNPDQVYLVDYGLAYRYCPEGVHKEYKEDPKRCHDGTIEFTSIDAHNGVAPSRRGDLEILGYCMIQWLTGHLPWEDNLKDPKYVRDSKIRYRENIASLMDKCFPEKNKPGEIAKYMETVKLLDYTEKPLYENLRDILLQGLKAIGSKDDGKLDLSVVENGGLKAKTITKKRKKEIEESKEPGVEDTEWSNTQTEEAIQTRSRTRKRVQK
# Variants of: B1
# Details: with aurkb_human AURKB
row,effect of a mutation on the interaction,Variant
1,increasing interaction strength,K179E

# Variants of: B1
# Details: with aurkb_human AURKB
# Remark: another data set of the same source
row,effect of a mutation on the interaction,Variant
1,disrupting interaction strength,K179E
